Details in all cases: both partners purified
The target of test [1] is T1, Ycg1 (6–932, Δ499–555)-Brn1 (384–529) (S. cerevisiae, UniProt Q06680 6-932; P38170 384-529, Δ499–555).
T1 construct: Ycg1, condensin HAWK subunit, S. cerevisiae, residues 6-932 with 499-555 deleted; Brn1, condensin kleisin subunit, S. cerevisiae, residues 384-529; Construct was a gift of Christian Haering (Kschonsak et al, 2017); also called Ycg1-Brn1; source: E. coli, purified (as described previously, Kschonsak et al, 2017)
T1 sequence (looked up) 1: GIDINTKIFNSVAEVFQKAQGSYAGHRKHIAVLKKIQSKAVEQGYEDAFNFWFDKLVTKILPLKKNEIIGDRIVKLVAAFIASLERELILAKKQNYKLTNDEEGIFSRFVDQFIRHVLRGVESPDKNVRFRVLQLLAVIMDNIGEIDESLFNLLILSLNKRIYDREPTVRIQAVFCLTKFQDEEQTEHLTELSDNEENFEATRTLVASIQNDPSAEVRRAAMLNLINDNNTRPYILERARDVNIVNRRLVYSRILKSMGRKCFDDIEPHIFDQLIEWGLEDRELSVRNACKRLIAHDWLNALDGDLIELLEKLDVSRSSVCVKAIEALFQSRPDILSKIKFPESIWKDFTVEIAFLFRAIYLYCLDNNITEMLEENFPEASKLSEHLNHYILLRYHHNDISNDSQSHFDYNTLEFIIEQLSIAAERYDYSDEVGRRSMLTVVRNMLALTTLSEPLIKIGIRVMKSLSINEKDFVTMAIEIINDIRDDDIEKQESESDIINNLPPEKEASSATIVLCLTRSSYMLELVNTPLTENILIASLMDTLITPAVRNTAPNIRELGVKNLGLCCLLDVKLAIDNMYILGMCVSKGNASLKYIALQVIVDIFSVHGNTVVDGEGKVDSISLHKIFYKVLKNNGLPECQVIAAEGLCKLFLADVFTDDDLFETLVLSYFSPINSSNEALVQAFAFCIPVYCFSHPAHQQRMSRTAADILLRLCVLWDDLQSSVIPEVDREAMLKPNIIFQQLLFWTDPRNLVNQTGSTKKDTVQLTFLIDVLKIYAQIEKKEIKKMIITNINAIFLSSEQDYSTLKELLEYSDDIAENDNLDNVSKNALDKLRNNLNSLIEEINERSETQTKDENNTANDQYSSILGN
T1 sequence (looked up) 2: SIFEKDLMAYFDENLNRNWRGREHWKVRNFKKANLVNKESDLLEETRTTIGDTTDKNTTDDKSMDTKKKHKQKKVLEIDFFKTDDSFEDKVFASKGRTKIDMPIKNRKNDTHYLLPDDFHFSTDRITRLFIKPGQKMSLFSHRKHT
Kind of test: co-IP; two purified recombinant proteins with anti-GFP-coupled dynabeads (GFP-Sgo1 variants held), 2.5 h; 25 mM HEPES pH 7.5, 500 mM NaCl, 10% glycerol, 1 mM DTT, 0.1% NP-40; silver-stained SDS-PAGE.

In test [2] the target is T2, pentameric condensin holo-complex (S. cerevisiae, UniProt P38989 1-1170; Q12267 1-1418; P38170 1-754; Q06680 1-1035; Q06156 1-1176).
T2 construct: Smc2, condensin subunit, S. cerevisiae; Smc4, condensin subunit, S. cerevisiae; Brn1, condensin kleisin subunit, S. cerevisiae; Ycg1, condensin HAWK subunit, S. cerevisiae; Ycs4, condensin HAWK subunit, S. cerevisiae; Constructs were a gift (St-Pierre et al, 2009); also called Sc condensin complex; condensin (Brn1-6HA); source: purified from yeast (as described previously, Kschonsak et al, 2017); …
In words: co-IP; two purified recombinant proteins with anti-V5-coupled dynabeads (V5-Sgo1 held), 2.5 h; 25 mM HEPES pH 7.5, 500 mM NaCl, 10% glycerol, 1 mM DTT, 0.1% NP-40; silver-stained SDS-PAGE and immunoblot.

For test [3], the target named is T1, Ycg1 (6–932, Δ499–555)-Brn1 (384–529). Kind of test: SEC; Sgo1 (350–590) with Ycg1 (6–932, Δ499–555)-Brn1 (384–529); Superdex200 10/300 24 ml column; 10 mM Tris-HCl pH 7.5, 250 mM NaCl, 5% glycerol, 0.001% Tween-20.

B1: GFP-Sgo1 (350–590) (domain or fragment, S. cerevisiae, UniProt Q08490 350-590, looked up)
chain: EVMPVSNMSSNSEISFTRTRRTRGKAVDYTLPSLRAKMRRPSEKLVDATTVIDIHDLQVSKRNRETSHKRKSLSQDSIPDEPQLREVVVSKDYGTPKGKKTEDEIHEDTAHLMTTSNNNSNNKNEKKLTSNNSPKKSSPLLDITNKSENKKKSTRTKKLFKNAIVNNLSDENSTTRPSKSSKGTSNNNNNYNNFDNNNSNINNVNNKSVSFRLNEDDLAVFDLFGNGKAVKHQPKTYRTKK
notes: Sgo1 (shugoshin), S. cerevisiae, residues 350-590; also called C-terminal region of Sgo1 (residues 350–590); C-Sgo1
For the molecule B1, in test [1], the binding result is “binds”.

B2: V5-Sgo1 (350–590) (domain or fragment, S. cerevisiae, UniProt Q08490 350-590, looked up)
chain: B1 chain
notes: Sgo1 (shugoshin), S. cerevisiae, residues 350-590; also called recombinant C-terminal region of Sgo1 (350–590); source: protease-deficient yeast strain (AM8184), galactose induced, purified (Ni2+ IMAC, Superose 6 gel filtration)
Turning to B2, the binding result in test [2] and in test [3] was “binds” throughout.

B3: GFP-Sgo1 (472-530) (domain or fragment, S. cerevisiae, UniProt Q08490 472-530, looked up)
chain: KNEKKLTSNNSPKKSSPLLDITNKSENKKKSTRTKKLFKNAIVNNLSDENSTTRPSKSS
notes: Sgo1 (shugoshin), S. cerevisiae, residues 472-530; also called Recombinant Sgo1 (472-530), wild type; source: E. coli BL21(DE3), purified (Ni-NTA resin, dialysis)
Regarding B3, the binding result in test [1] is “binds”.

B4: V5-Sgo1 (FL) (natural protein, S. cerevisiae, UniProt Q08490 1-590, looked up)
chain: MPKRKIAPNKESSRRTVSHDDLTPQIQEFQNLMDLESQKVENIRQSYSRQNSLLAKDNSILKIKVNSLEKKISQLVQENVTLRSKTSISEAIYRERLSNQLQVIENGIIQRFDEIFYMFENVRKNENLPSSSLRTMLKRTSSRSRSCSLSSPTYSKSYTRLSNHENNLSHESSFNKDDGPDLEPKAKKRKSSRRQSMFVSTSLEPEDETGENEPMMENSSVEVPAESHESAQVEETIDALNPEEENSDSVSNFTNSIIEYSIPEENPTEPEHSSSKLEIFNDSTNMLSTVPSNPLPLPLPGPSATLPTTTSDASTVYPSSSSSTNSHPKTKIKHSMKPPRIELKKKVIDEVMPVSNMSSNSEISFTRTRRTRGKAVDYTLPSLRAKMRRPSEKLVDATTVIDIHDLQVSKRNRETSHKRKSLSQDSIPDEPQLREVVVSKDYGTPKGKKTEDEIHEDTAHLMTTSNNNSNNKNEKKLTSNNSPKKSSPLLDITNKSENKKKSTRTKKLFKNAIVNNLSDENSTTRPSKSSKGTSNNNNNYNNFDNNNSNINNVNNKSVSFRLNEDDLAVFDLFGNGKAVKHQPKTYRTKK
notes: Sgo1 (shugoshin), S. cerevisiae, full length; also called full-length V5-Sgo1; Sc Sgo1; source: protease-deficient yeast strain (AM8184), purified (Ni2+ IMAC, Superose 6 gel filtration)
With B4, the binding result in test [2] was “binds”.

For the origin of these results see article PMC11791182, “Molecular mechanism targeting condensin for chromosome condensation” (The EMBO Journal, 2024).
